41 sequences from the Immune Epitope Database (IEDB) can be followed below.

Experiment [1] addresses HLA-B*44:02. Nature of the experiment: IEDB peptide-MHC binding, purified MHC/competitive/radioactivity; filed as Kd, often an IC50 or EC50 that approximates it; ≥ and ≤ were set here for values at or beyond the usual limits of such assays.
For experiment [2], the target named is HLA-B*40:01. The experiment is described as above. As to conditions: source organism: Dengue virus 1 Singapore/S275/1990.
For the next experiment, the target named is HLA-B*44:03. Described as above.
The target of experiment [3] is HLA-A*02:01. Put plainly: IEDB peptide-MHC binding, purified MHC/competitive/fluorescence; ≥ and ≤ were set here for values at or beyond the usual limits of such assays.
The target of experiment [4] is HLA-B*15:01. Described as above.
The next experiment deals with HLA-A*24:02. The experiment is described as above.
The target of experiment [5] is HLA-B*15:01. Nature of the experiment: IEDB peptide-MHC binding, purified MHC/competitive/radioactivity; filed as Kd, often an IC50 or EC50 that approximates it; ≥ and ≤ were set here for values at or beyond the usual limits of such assays. As to conditions: source organism: Vaccinia virus WR.
Experiment [6] addresses HLA-B*08:01. The experiment is described as above. Particulars: source organism: Vaccinia virus WR.
For the next experiment, the target named is HLA-A*32:01. The experiment is described as above. As to conditions: source organism: Vaccinia virus WR.
The next experiment has as its target HLA-B*15:03. The description is as above. Particulars: source organism: Vaccinia virus WR.
Another experiment addresses HLA-A*30:01. The experiment is described as above. Particulars: source organism: Vaccinia virus WR.
The target in the next experiment is HLA-B*48:01. Nature of the experiment: IEDB peptide-MHC binding, purified MHC/direct/fluorescence; filed as Kd, often an IC50 or EC50 that approximates it; ≥ and ≤ were set here for values at or beyond the usual limits of such assays.
The next experiment has as its target HLA-A*31:01. The experiment is described as above. As to conditions: source organism: Salmonella enterica.
The target in experiment [7] is HLA-A*02:01. Described as above. As to conditions: source organism: Salmonella enterica.
The next experiment addresses HLA-A*69:01. Described as above. Particulars: source organism: Salmonella enterica.
The target of a further experiment is HLA-A*24:03. Described as above. As to conditions: source organism: Salmonella enterica.
The target in the next experiment is HLA-A*26:01. Described as above. As to conditions: source organism: Salmonella enterica.
Experiment [8] addresses HLA-B*15:01. The description is as above. As to conditions: source organism: Salmonella enterica.
Experiment [9] concerns the target HLA-B*44:02. Described as above.
Experiment [10] deals with HLA-B*40:01. The description is as above. As to conditions: source organism: Salmonella enterica.
The target in another experiment is HLA-A*03:01. Described as above. As to conditions: source organism: Salmonella enterica.
The target in a further experiment is HLA-B*58:01. The experiment is described as above. As to conditions: source organism: Salmonella enterica.
In the next experiment the target is HLA-B*27:05. The description is as above. As to conditions: source organism: Salmonella enterica.
For a further experiment, the target named is HLA-A*11:01. The experiment is described as above. Particulars: source organism: Salmonella enterica.
Experiment [11] has as its target HLA-B*08:01. The description is as above. Particulars: source organism: Salmonella enterica.
The next experiment has as its target HLA-B*07:02. The experiment is described as above. As to conditions: source organism: Salmonella enterica.
A further experiment deals with HLA-A*01:01. The experiment is described as above. Particulars: source organism: Escherichia coli.
The target in a further experiment is HLA-B*18:01. The experiment is described as above. As to conditions: source organism: Dengue virus.
Where [12] appears, read: source organism: Dengue virus 1 Singapore/S275/1990.
Where [13] appears, read: source organism: Vaccinia virus WR.
Where [14] appears, read: source organism: Dengue virus 2 Jamaica/1409/1983.
Setting [15] is: source organism: Dengue virus 3 Martinique/1243/1999.
The mark [16] stands for this setting: source organism: Dengue virus 1 Brazil/97-11/1997.
The mark [17] stands for this setting: source organism: Sudan ebolavirus.
The mark [18] stands for this setting: source organism: Zaire ebolavirus.
Where [19] appears, read: source organism: Dengue virus 4 Philippines/H241/1956.
The mark [20] stands for this setting: source organism: Vaccinia virus Copenhagen.

For AENHHHATM, the Kd – broadly, a measure of binding affinity in units of concentration – with HLA-B*44:02 [1] (setting [12]) was determined as 27.3 nM; with HLA-B*40:01 [2], 10.1 nM; with HLA-B*44:03 (setting [12]), 115 nM.

Regarding CMIRWLGGI, the results for the IC50 with HLA-A*02:01 [3] (setting [13]), in the experiment with HLA-B*15:01 [4] (setting [13]) and with HLA-A*24:02 (setting [13]) were 428 nM, 30300 nM and 4000 nM, respectively.

Consider MEDKTPVESW, for which the figures for the Kd in the experiment with HLA-B*44:02 [1] (setting [14]) and in the experiment with HLA-B*44:03 (setting [14]) were 33.2 nM and 70.9 nM, respectively.

With NERGKSLLF, the Kd with HLA-B*44:02 [1] (setting [15]) is 467 nM; with HLA-B*44:03 (setting [15]), 122 nM.

Take KEAVEDERFW: the Kd in the experiment with HLA-B*44:02 [1] (setting [16]) was 45.4 nM; in the experiment with HLA-B*44:03 (setting [16]) it was 305 nM.

For the sequence VINRLGADL, the results for the IC50 with HLA-A*02:01 [3] (setting [13]) and in the experiment with HLA-B*15:01 [4] (setting [13]) were not below 76600 nM and not below 105000 nM, respectively.

For the sequence SMFLMTATL, in the experiment with HLA-B*15:01 [4] (source organism: Variola virus), the IC50 – broadly, the concentration that inhibits the measured activity by half – amounted to 1120 nM.

Turning to KEEHNSTWHY, the Kd in the experiment with HLA-B*44:02 [1] (setting [15]) turned out to be 183 nM; with HLA-B*44:03 (setting [15]) it was 10500 nM.

Take FQLNDTIHL: the figures for the IC50 with HLA-A*02:01 [3] (setting [17]), in the experiment with HLA-B*15:01 [4] (setting [17]) and with HLA-A*24:02 (setting [17]) were 1520 nM, 50500 nM and 36900 nM, respectively.

In the case of LYRPNIPLK, the Kd with HLA-B*15:01 [5] was not below 55800 nM; in the experiment with HLA-B*08:01 [6], not below 33300 nM; in the experiment with HLA-A*32:01 it was not below 77800 nM; with HLA-B*15:03, not below 69200 nM; with HLA-A*30:01 it was 3.45 nM.

Turning to SEMIIPKIY, the Kd turned out to be 8.61 nM in the experiment with HLA-B*44:02 [1] (setting [12]) and 12.8 nM with HLA-B*44:03 (setting [12]).

For the sequence LHHAYQGDY, the IC50 in the experiment with HLA-B*15:01 [4] (setting [18]) is not below 206000 nM.

With GEGLHRLGY, the Kd in the experiment with HLA-B*44:02 [1] (setting [19]) is 11.5 nM; with HLA-B*44:03 (setting [19]), 17.6 nM.

Consider KQYKFYNQI, for which the Kd is 6630 nM with HLA-B*15:01 [5]; not below 77700 nM with HLA-B*08:01 [6]; 10600 nM with HLA-A*32:01; 121 nM in the experiment with HLA-B*15:03; 1340 nM in the experiment with HLA-A*30:01.

For the sequence LQYVHINEL, in the experiment with HLA-B*15:03, the Kd was 3.66 nM.

In the case of VVNYEAGEW, the IC50 is not below 119000 nM with HLA-B*15:01 [4] (setting [18]) and not below 75500 nM with HLA-A*24:02 (setting [18]).

Take RQMVNDMIF: in the experiment with HLA-B*15:03, the Kd came to 1.25 nM.

Turning to FKINIFMAF, the Kd in the experiment with HLA-B*08:01 [6] worked out at 10600 nM; with HLA-B*15:03 it was 10.2 nM.

With VVANVIGLS, the IC50 with HLA-A*02:01 [3] (setting [20]) is 26600 nM; with HLA-B*15:01 [4] (setting [20]) it was 46900 nM.

In the case of KLLSHFYPA, the Kd is 38.7 nM with HLA-B*15:01 [5]; 81 nM with HLA-B*08:01 [6]; 129 nM in the experiment with HLA-A*32:01; 5.4 nM in the experiment with HLA-B*15:03; 3300 nM with HLA-A*30:01.

For the sequence FINMTGNHF, the Kd with HLA-B*15:01 [5] came to 16.1 nM; in the experiment with HLA-B*15:03 it was 34.2 nM.

RRLAATTEK: the Kd with HLA-B*48:01 (source organism: West Nile virus) was not below 20000 nM.

Consider SMKTVFQVF, for which the Kd in the experiment with HLA-B*15:01 [5] came to 1.57 nM; with HLA-B*08:01 [6] it was 179 nM; in the experiment with HLA-B*15:03, 3.81 nM.

With KKVYTFFKF, the Kd in the experiment with HLA-B*15:03 was found to be 3.63 nM.

As to EQFVGTNSI, the Kd with HLA-B*15:03 worked out at 194 nM.

On to ASTNLGSSF, for which, in the experiment with HLA-B*15:03, the Kd was 164 nM.

For WKWFYKKYL, the Kd with HLA-B*48:01 (source organism: Campylobacter jejuni subsp. jejuni HB93-13) is 271 nM.

In the case of WTDLYTSMS, the Kd with HLA-A*31:01, with HLA-A*02:01 [7], with HLA-A*69:01, in the experiment with HLA-A*24:03, in the experiment with HLA-A*26:01 and with HLA-B*15:01 [8] was not below 20000 nM each time. Besides, the Kd with HLA-B*44:02 [9] (source organism: Salmonella enterica), with HLA-B*40:01 [10], in the experiment with HLA-A*03:01, in the experiment with HLA-B*58:01, with HLA-B*27:05 and with HLA-A*11:01 was not below 20000 nM in each case. For the same sequence, the results for the Kd in the experiment with HLA-B*08:01 [11], in the experiment with HLA-B*07:02 and in the experiment with HLA-A*01:01 were not below 20000 nM, not below 20000 nM and 81.7 nM, respectively.

For YDEDNPYKTW, in the experiment with HLA-B*44:02 [1] (setting [16]), the Kd turned out to be 470 nM.

As for WEGNPGRFW, the Kd was 12.9 nM in the experiment with HLA-B*44:02 [1] (setting [14]) and 89.4 nM with HLA-B*44:03 (setting [14]).

On to NYLFGGFST, for which the IC50 is 23400 nM with HLA-A*02:01 [3] (source organism: Variola virus), not below 289000 nM with HLA-B*15:01 [4] (source organism: Variola virus) and 1650 nM in the experiment with HLA-A*24:02 (source organism: Variola virus).

Turning to RTRNMFRKK, the Kd was not below 51200 nM in the experiment with HLA-B*15:03 and 0.0892 nM in the experiment with HLA-A*30:01.

IETPNELSF: in the experiment with HLA-B*15:03, the Kd amounted to 288 nM.

For the sequence EEEQTLTILI, the Kd worked out at 17.3 nM with HLA-B*44:02 [1] (setting [14]) and 128 nM in the experiment with HLA-B*44:03 (setting [14]).

On to AELTGYGTV, for which the Kd with HLA-B*44:02 [9] (source organism: Dengue virus) was not below 20000 nM; with HLA-B*18:01, 472 nM.

Take KMSFLPIIF: the Kd with HLA-A*32:01 worked out at 6.72 nM; with HLA-B*15:03, 0.08 nM.

On to SQYANCSSI, for which the IC50 with HLA-B*15:01 [4] (setting [20]) is 7410 nM; in the experiment with HLA-A*24:02 (setting [20]), not below 82700 nM.

Take LEFNTPFVF: the Kd in the experiment with HLA-B*15:03 was found to be 10.4 nM.

Take FQQTNAMVT: the IC50 with HLA-A*02:01 [3] (setting [18]) turned out to be 11000 nM; with HLA-B*15:01 [4] (setting [18]), 36100 nM.

On to VGRVNPGTY, for which the results for the IC50 in the experiment with HLA-B*15:01 [4] (source organism: Variola virus) and in the experiment with HLA-A*24:02 (source organism: Variola virus) were 29700 nM and 5450 nM, respectively.

Turning to ELYMYFNHV, the values for the Kd with HLA-B*15:01 [5], with HLA-B*08:01 [6] and with HLA-B*15:03 were 1330 nM, 238 nM and 414 nM, respectively.
